T1: ghrelin (Homo sapiens, UniProt Q9UBU3, octanoylated ghrelin)
T1 chain: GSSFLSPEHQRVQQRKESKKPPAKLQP


What was measured:
[1] = target: Growth hormone secretagogue receptor (Homo sapiens) (UniProt Q92847); conditions: cited from earlier work
[2] = target: T1, ghrelin; experiment: fluorescence displacement of atto520-ghrelin
[3] = target: T1, ghrelin; experiment: fluorescence displacement of atto520-ghrelin (Goldstein-Barrett corrected)

Row | Molecule | Kd [1] | IC50 [2] | Ki [3]
1 | Ghrelin (from UniProt Q9UBU3) | 0.15 nM | – | –
2 | GHS receptor (GHSR1a) (protein) MWNATPSEEPGFNLTLADLDWDASPGNDSLGDELLQLFPAPLLAGVTATCVALFVVGIAGNLLTMLVVSRFRELRTTTNLYLSSMAFSDLLIFLCMPLDLVRLWQYRPWNFGDLLCKLFQFVSESCTYATVLTITALSVERYFAICFPLRAKVVVTKGRVKLVIFVIWAVAFCSAGPIFVLVGVEHENGTDPWDTNECRPTEFAVRSGLLTVMVWVSSIFFFLPVFCLTVLYSLIGRKLWRRRRGDAVVGASLRDQNHKQTVKMLAVVVFAFILCWLPFHVGRYLFSKSFEPGSLEIAQISQYCNLVSFVLFYLSAAINPILYNIMSKKYRVAVFRLLGFEPFSQRKLSTLKDESSRAWTESSINT | – | 6.87 µM | 10 nM
